Assay results taken from patent US20060292151A1, “L-SIGN polymorphisms and methods involving use of same” (priority 2004, published 2006).

Legend:
[1] = target: L-SIGN-7 (human) (UniProt Q9H2X3); assay: HCVpp supernatant on HeLa-SIGN transfectants, cell-bound p24 by ELISA
[2] = target: L-SIGN-9 (human); assay: flow cytometry, E2 at 5 µg/ml; lower end tied to L-SIGN-9 by the words L-SIGN-9 cells showing the lowest levels of binding
[3] = target: L-SIGN-9 (human); assay: flow cytometry on HeLa-SIGN transfectants
[4] = target: HeLa-SIGN transfectants (L-SIGN isoforms tested); assay: flow cytometry, E2 at 5 µg/ml; upper end not tied to an isoform

Sequence of L-SIGN-7 (human) (Q9H2X3 whole entry): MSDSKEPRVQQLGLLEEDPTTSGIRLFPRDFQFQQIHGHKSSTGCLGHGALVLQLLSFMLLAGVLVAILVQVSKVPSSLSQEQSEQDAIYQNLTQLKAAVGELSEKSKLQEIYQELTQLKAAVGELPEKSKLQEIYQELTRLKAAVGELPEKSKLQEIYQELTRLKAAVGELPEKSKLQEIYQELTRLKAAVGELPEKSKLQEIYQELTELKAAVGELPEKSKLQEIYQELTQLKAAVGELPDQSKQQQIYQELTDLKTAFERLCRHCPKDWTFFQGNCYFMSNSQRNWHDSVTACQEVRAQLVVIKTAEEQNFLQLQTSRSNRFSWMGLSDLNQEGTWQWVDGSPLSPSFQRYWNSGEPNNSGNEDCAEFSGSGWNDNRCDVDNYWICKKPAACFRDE

| Substance | fold higher binding than to the other isoforms [1] [fold] | fold above background binding to parental HeLa [2] [fold] | specific binding, percent of cells [2] | fold lower binding than the other isoforms [3] [fold] | fold above background binding to parental HeLa [4] [fold] | specific binding, percent of cells [4] |
| --- | --- | --- | --- | --- | --- | --- |
| HCV pseudovirus particles (HCVpp) (from UniProt P27958 192-383; P27958 384-746) (other; other documents disagree on this pair) | 2 |  |  |  |  |  |
| soluble E2 glycoprotein |  | 9 | 35 % of cells | 2 to 3 | 25 | 93 % of cells |
